Data taken from publication PMC4052671, “Cloning, expression and characterization of a versatile Baeyer-Villiger monooxygenase from Dietzia sp. D5” (AMB Express, 2014).

Legend:
[1] = tested on: CC(=O)Cc1ccccc1; assay: purified protein; format: biochemical, Dietzia sp. D5; conditions: co-substrate NADPH (60 μM in the standard assay), 50 mM sodium phosphate pH 7.5, 10 mM KCl, 25 °C
[2] = molecular target: T1, BVMO4 (Dietzia sp. D5, UniProt U5S003, P2A); assay: activity recovery of purified enzyme on FAD addition; format: biochemical; conditions: FAD added to 10 μM after Ni-NTA purification; phenylacetone as substrate; pH 7.5
T1 construct: full length, 612 residues; His-tagged in pET-22b(+) (NcoI/NotI); E. coli BL21-CodonPlus(DE3)-RP; Ni-NTA; about 75 kDa on SDS-PAGE, predicted 72 kDa; FAD added after purification

[3] = substrate: NC(=O)C1=CN([C@@H]2O[C@H](COP(=O)(O)OP(=O)(O)OC[C@H]3O[C@@H](n4cnc5c(N)ncnc54)[C@H](OP(=O)(O)O)[C@@H]3O)[C@@H](O)[C@H]2O)C=CC1; assay: purified protein; format: biochemical, Dietzia sp. D5; conditions: NADPH varied, fixed ketone substrate not stated, 50 mM sodium phosphate pH 7.5, 10 mM KCl, 25 °C, varied: cofactor
[4] = substrate: CC1CCCCC1=O; assay: purified protein; format: biochemical, Dietzia sp. D5; conditions: co-substrate NADPH (60 μM in the standard assay), 50 mM sodium phosphate pH 7.5, 10 mM KCl, 25 °C

BVMO4 (Dietzia sp. D5; P2A) showed a Km [1] of 829 ± 163 µM, a Vmax [1] of 4.74 µM/min and a kcat [1] of 0.634 ± 0.104 s⁻¹. The kcat/Km [1] was 770 ± 30 M⁻¹ s⁻¹.

For `Cc1cc2nc3c(=O)[nH]c(=O)nc-3n(C[C@H](O)[C@H](O)[C@H](O)COP(=O)(O)OP(=O)(O)OC[C@H]3O[C@@H](n4cnc5c(N)ncnc54)[C@H](O)[C@@H]3O)c2cc1C` [FAD], the “activity recovery of purified enzyme on FAD addition” value [2] was “The enzyme lost its activity during the purification process but was recovered upon addition of FAD”.

B1: BVMO4 (Dietzia sp. D5; P2A) (protein)
chain: MAFTLPESKIAIDIDFDPDHLRQRFEADKQARERKDQLAQFQGLDDVLEVDDSDPFSEPITREPVTEELDALVLGGGFGGLTAGAYLTQNGVENFRLVEYGGDFGGTWYWNRYPGVQCDIESHIYMPLLEETGYVPSQRYADGSEIFEHAQRIGRHYGLYDRTYFQTRATHARWDEQIQRWEVTTDRGDRFVTRVLLRSNGALTKPQLPKVPGIGDFEGKIFHTSRWDYGYTGGSAAGDLAHLRDKRVAVVGTGATGVQVVPYLAQDAKELVVVQRTPSVVQPRNNRKTDPEWVASLTPGWQYERHDNFNGIISGHEVEGNLVDDGWTHLFPELTGQHLVDVPVGELPEGDQALVAELADMNLLMSAHARVDSIVTDPATADGLKPWFGYMCKRPCFNDEYLEAFNRPNVTLAASPAGIDGITSSGIVVAGTHYEVDCIIFATGFETGSGPAGIYGYDVIGREGHSMQEYFSEGARTFHGFFTHGFPNFVELGMSQTAYYVNFVYMLDRKARHAARLVRHLLDSGIGTFEPTAEAEADWVAEVRRSNEPREAYWGACTPGYYNGQGEVSKAVFRDVYNSSEIDFWNMIEAWWNSGRFEGLVFEPARDAVPVA
notes: full length, 612 residues; His-tagged in pET-22b(+) (NcoI/NotI); E. coli BL21-CodonPlus(DE3)-RP; Ni-NTA; about 75 kDa on SDS-PAGE, predicted 72 kDa; FAD added after purification
Work on B1 yielded a Km [3] of 11 ± 2 µM, a Vmax [3] of 4.2 µM/min and a kcat [3] of 0.507 ± 0.057 s⁻¹. The kcat/Km [3] was 45100 ± 1520 M⁻¹ s⁻¹, the Km [4] was 507 ± 142 µM and the Vmax [4] was 3.07 µM/min. It also gave a kcat [4] of 0.37 ± 0.095 s⁻¹ and a kcat/Km [4] of 730 ± 20 M⁻¹ s⁻¹.
